Test results from patent US20170327579A1 (ENGMAB, published 2017).

Assays:
[1] = target: T1, human BCMA on myeloma cells (H929, U266, patient bone marrow myeloma plasma cells) (human, UniProt Q02223 1-184); assay: cell-based or functional assay
T1 sequence (looked up): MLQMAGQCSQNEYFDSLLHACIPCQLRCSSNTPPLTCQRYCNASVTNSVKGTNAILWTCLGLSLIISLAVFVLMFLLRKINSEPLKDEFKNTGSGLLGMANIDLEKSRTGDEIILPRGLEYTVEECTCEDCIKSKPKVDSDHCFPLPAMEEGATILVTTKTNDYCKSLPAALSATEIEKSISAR

[2] = target: T1, human BCMA on myeloma cells (H929, …); assay: cell-based or functional assay; remark: listed apart in the source

B1: pSCHLI333-TCB CLC (bispecific antibody)
heavy 1: not shown
heavy 2: QVQLVQSGAEVKKPGASVKVSCKASGYMFSSFGMSWVRQAPGQGLEWMGWIYPVGQGTWYAQKFQGRVTMTRDTSTSTVYMELSSLRSEDTAVYYCARVSYPPSHFDYWGQGTLVTVSSASTKGPSVFPLAPSSKSTSGGTAALGCLVKDYFPEPVTVSWNSGALTSGVHTFPAVLQSSGLYSLSSVVTVPSSSLGTQTYICNVNHKPSNTKVDKKVEPKSCDKTHTCPPCPAPEAAGGPSVFLFPPKPKDTLMISRTPEVTCVVVDVSHEDPEVKFNWYVDGVEVHNAKTKPREEQYNSTYRVVSVLTVLHQDWLNGKEYKCKVSNKALGAPIEKTISKAKGQPREPQVCTLPPSRDELTKNQVSLSCAVKGFYPSDIAVEWESNGQPENNYKTTPPVLDSDGSFFLVSKLTVDKSRWQQGNVFSCSVMHEALHNHYTQKSLSLSPGK
light: QAVVTQEPSLTVSPGGTVTLTCGSSTGAVTTSNYANWVQEKPGQAFRGLIGGTNKRAPGTPARFSGSLLGGKAALTLSGAQPEDEAEYYCALWYSNLWVFGGGTKLTVLGQPKAAPSVTLFPPSSEELQANKATLVCLISDFYPGAVTVAWKADSSPVKAGVETTTPSKQSNNKYAASSYLSLTPEQWKSHRSYSCQVTHEGSTVEKTVAPTECS
EC50 (pM) for redirected T-cell killing of H929 cells (LDH release) [1]: 980 pM
EC50 (µg/ml) for redirected T-cell killing of H929 cells (LDH release) [1]: 0.19 µg/mL

B2: pSCHLI372-TCB CLC (bispecific antibody)
heavy 1: not shown
heavy 2: EVQLVESGGGLVKPGGSLRLSCAASGFTFSNSGMIWVRQAPGKGLEWVGHIRSKTDGGTTDYAAPVKGRFTISRDDSKNTLYLQMNSLKTEDTAVYYCTTGGSGSFDYWGQGTLVTVSSASTKGPSVFPLAPSSKSTSGGTAALGCLVKDYFPEPVTVSWNSGALTSGVHTFPAVLQSSGLYSLSSVVTVPSSSLGTQTYICNVNHKPSNTKVDKKVEPKSCDKTHTCPPCPAPEAAGGPSVFLFPPKPKDTLMISRTPEVTCVVVDVSHEDPEVKFNWYVDGVEVHNAKTKPREEQYNSTYRVVSVLTVLHQDWLNGKEYKCKVSNKALGAPIEKTISKAKGQPREPQVCTLPPSRDELTKNQVSLSCAVKGFYPSDIAVEWESNGQPENNYKTTPPVLDSDGSFFLVSKLTVDKSRWQQGNVFSCSVMHEALHNHYTQKSLSLSPGK
light: B1 light
EC50 (pM) for redirected T-cell killing of H929 cells (LDH release), Experiment 1 [1]: 450 pM
EC50 (pM) for redirected T-cell killing of H929 cells (LDH release), Experiment 2 [1]: 900 pM
EC50 (µg/ml) for redirected T-cell killing of H929 cells (LDH release), Experiment 1 [1]: 0.08 µg/mL
EC50 (µg/ml) for redirected T-cell killing of H929 cells (LDH release), Experiment 2 [1]: 0.17 µg/mL
EC50 (pM) for redirected T-cell killing of U266 cells (LDH release) [2]: 5700 pM
EC50 (µg/ml) for redirected T-cell killing of U266 cells (LDH release) [2]: 1.1 µg/mL
